Measured values: patent US20220211860A1, “PEPTIDE DERIVATIVES AND CONJUGATES THEREOF FOR TREATING CANCER” (priority 2019, published 2022)

Columns and labels:
female NOD/SCID mice = test: Phase I: single-dose MTD in mice; assay type: in vivo; settings: for Body Weight: individual animals
Description: LD5-(mc-vc-PABC)-MMAE was administered IV to groups of 3 female NOD/SCID mice (23±3 g). Animals received an initial dose of 3 mg/kg. If the animals survived for 72 hours, the dose for the next cohort was increased. If one or more animals died, the dose for the next cohort was decreased. The testing stopped when all animals survived at the upper bound, or when two or three dose levels had been tested or when the upper or lower bound had been reached. […] Body weights were recorded pre-dose and at 72 hours after treatment. The animals were observed and mortality noted daily after compound administration for 3 days. Gross necropsy was performed on all animals without tissue collection. […] No mortality and body weight changes were noted, signifying the dose level was tolerated (Tables 2 and 3). The dose at 10 mg/kg was then determined for the following repeat-dose MTD study (Phase II).

[1] = In vitro metabolic stability (release of free MMAE, LC/MS), human plasma; assay type: in vitro ADME; settings: 1 μM, 37° C., 10 days
Description: (§1) FIG. 11: Stability of LHRHD-(mc-vc-PABC)-MMAE (i.e. LD5-mc-vc-PABC-MMAE) in human plasma, mouse plasma, and cell culture media (c-media). The stability was measured based on the presence of free MMAE detected in the samples by LC-MS at each time point relative to time 0. Error Bars are standard deviations (STDV), p>0.05 and n=9 (mean is calculated from samples in triplicate in 3 independent experiments).
(§2) The metabolic stability of LD5-(mc-vc-PABC)-MMAE was investigated in cell culture media (c-media), human and mouse plasma. An LC/MS method was developed to detect both free MMAE and the presence of any degraded species from the whole construct, LD5-(mc-vc-PABC)-MMAE. To evaluate the stability of the valine-citrulline linkage, LD5-(mc-vc-PABC)-MMAE at 1 μM was incubated in c-media, human and mouse plasma at 37° C. for a period of 10 days. Aliquots were taken at pre-determined time intervals (t=0, 1, 2, 4, 7, 10 days) and analysed by LC/MS for the release of free MMAE.

α-tubulin polymerisation = test: α-tubulin immunostaining in TNBC and normal breast cells; assay type: cell-based; settings: normal breast cells, 1 µM, 18 h
Description: FIGS. 8A and 8B: The effect of MMAE and LD5-me-vc-PABC-MMAE (LM) on α-tubulin polymerization. (A) MDA-MB-231 (TNBC cell model) and normal breast cells (HMEC and MCF-10A) were treated with free MMAE and LM at 1 μM and PBS (control) followed by immunostaining of α-tubulin with primary and secondary antibodies. The α-tubulin signals were detected by LEICA SPE2 confocal LSM. (B) The α-tubulin signal intensity was measured by Fiji J software in normal breast cells (HMEC and MCF-10A) and MDA-MB-231. ****p<0.0001 is the significance in the signal intensity in each cell line treated with PBS and LM in comparison to MMAE-treated cells. ####p<0.0001 is the significance of the α-tubulin signal intensity in MDA-MB-231 cells treated with LM in comparison to MCF-10A and HMEC cells. […] Statistical analysis was made in Prism by two-way ANOVA followed by Tukey's multiple comparisons test. Error bars are standard deviations (STDV), n=8 (3 independent repeats).
The intracellular effects of MMAE on α-tubulin polymerisation were examined using α-tubulin immunostaining in TNBC cells (MDA-MB-231) and normal breast cells (MCF-10A and HMEC) treated with MMAE and MMAE conjugated with LD5 (LD5-mc-vc-PABC-MMAE). TNBC cells and normal breast cells were fixed after incubating with […] of MMAE and LD5-mc-vc-PABC-MMAE for 18 h along with PBS as a control. […]

[2] = In vitro metabolic stability (release of free MMAE, LC/MS), mouse plasma; assay type: in vitro ADME; settings: 1 μM, 37° C., 10 days
Description: as §1, §2

MDA-MB-231 = test: Receptor binding competitive assay (triptorelin pre-treatment, MTT); assay type: cell-based, human; settings: MDA-MB-231 pre-treated with 100 µM of triptorelin (TRN) for 2 h
Description: FIGS. 5A and 5B: Receptor binding competitive assay. MDA-MB-231 was pre-treated with triptorelin (TRN) and LM (LD5-mc-vc-PABC-MMAE) then the MTT assay was performed. (A) The IC50 value (nM) was calculated by non-linear regression (curve fit) for PC-3 and MDA-MB-231 with and without pre-treatment with triptorelin. (B) The cell viability in TRN-LM was assessed in comparison to LM in MDA-MB-231 (TNBC cell line). The cytotoxic effects of LM is reversed after pre-treatment with triptorelin indicating a significant role of LHRH-Rs in the mechanism of action of LM. Two-way ANOVA was performed followed by Sidak's multiple comparisons test (***p<0.00001). Error bars are standard deviations (STDV), n=8 (3 independent repeats).
Receptor binding competitive assay was performed to examine the association of cytotoxicity with binding to LHRH-Rs. TNBC cells (MDA-MB-231) were pre-treated with 100 µM of triptorelin (TRN) for 2 h to block the LHRH-R. The significant cytotoxic effects of LD5-mc-vc-PABC-MMAE (LM) was reversed after pre-treatment with TRN (FIGS. 5A and 5B).

## CCNC(=O)[C@@H]1CCCN1C(=O)[C@H](CCCNC(=N)N)NC(=O)[C@H](CC(C)C)NC(=O)[C@@H](CCCCNC1CC(=O)N(CCCCCC(=O)N[C@H](C(=O)N[C@@H](CCCNC(N)=O)C(=O)Nc2ccc(COC(=O)N(C)[C@H](C(=O)N[C@H](C(=O)N(C)[C@@H]([C@@H](C)CC)[C@@H](CC(=O)N3CCC[C@H]3[C@H](OC)[C@@H](C)C(=O)N[C@H](C)[C@@H](O)c3ccccc3)OC)C(C)C)C(C)C)cc2)C(C)C)C1=O)NC(=O)[C@H](Cc1ccc(O)cc1)NC(=O)[C@H](CO)NC(=O)[C@H](Cc1c[nH]c2ccccc12)NC(=O)[C@H](Cc1c[nH]cn1)NC(=O)[C@@H]1CCC(=O)N1 (stereo partly drawn) [LD5-mc-vc-PABC-MMAE]
Female NOD/SCID mice; 3 and 10 mg/kg IV, 15 minutes, 1 and 2 hours
  adverse effects (acute toxic symptoms, autonomic effects): No significant adverse effects
Female NOD/SCID mice; IV 3 mg/kg, 15 min
  Mortality (death/test): 0/3
Female NOD/SCID mice; IV 3 mg/kg, 1 hr
  Mortality (death/test): 0/3
Female NOD/SCID mice; IV 3 mg/kg, 2 hr
  Mortality (death/test): 0/3
Female NOD/SCID mice; IV 3 mg/kg, 24 hr
  Mortality (death/test): 0/3
Female NOD/SCID mice; IV 3 mg/kg, 48 hr
  Mortality (death/test): 0/3
Female NOD/SCID mice; IV 3 mg/kg, 72 hr
  Mortality (death/test): 0/3
  Body Weight: 21 g
Female NOD/SCID mice; IV 3 mg/kg, time 0 (pre-dose)
  Body Weight: 21 g
Female NOD/SCID mice; IV 10 mg/kg, 15 min
  Mortality (death/test): 0/3
Female NOD/SCID mice; IV 10 mg/kg, 1 hr
  Mortality (death/test): 0/3
Female NOD/SCID mice; IV 10 mg/kg, 2 hr
  Mortality (death/test): 0/3
Female NOD/SCID mice; IV 10 mg/kg, 24 hr
  Mortality (death/test): 0/3
Female NOD/SCID mice; IV 10 mg/kg, 48 hr
  Mortality (death/test): 0/3
Female NOD/SCID mice; IV 10 mg/kg, 72 hr
  Mortality (death/test): 0/3
Female NOD/SCID mice; IV 10 mg/kg, time 0 (pre-dose)
  Body Weight: 20 g
[1]
  total drug released as MMAE: less than 3%
[1]; listed as LHRHD-(mc-vc-PABC)-MMAE
  total drug released as MMAE: around 3%
α-tubulin polymerisation
  α-tubulin signal compared to MMAE treatment: significantly higher
[2]
  total drug released as MMAE: less than 5%
MDA-MB-231
  cytotoxic effects after pre-treatment with triptorelin: reversed
